For 2 substances, Kd and killing of cells expressing the truncated target, EC50 results are on record in patent US20160368985A1.

The target in one experiment is human CD3ε (human) (UniProt P07766). Briefly: BIACORE and Scatchard; monovalent KD of anti-CD3 arm; legend prints 2.5 nM. (In general: In SPR one partner is held on a chip, and binding of the other changes the refractive index at the surface.)
For experiment [1], the target named is truncated human FcRH5 (deletion of amino acids 1-744) with N-terminal gD tag (human) (UniProt Q96RD9). In words: cell-based or functional assay.
Sequence of truncated human FcRH5 (deletion of amino acids 1-744) with N-terminal gD tag (human) (Q96RD9 745-977, stated change not applied): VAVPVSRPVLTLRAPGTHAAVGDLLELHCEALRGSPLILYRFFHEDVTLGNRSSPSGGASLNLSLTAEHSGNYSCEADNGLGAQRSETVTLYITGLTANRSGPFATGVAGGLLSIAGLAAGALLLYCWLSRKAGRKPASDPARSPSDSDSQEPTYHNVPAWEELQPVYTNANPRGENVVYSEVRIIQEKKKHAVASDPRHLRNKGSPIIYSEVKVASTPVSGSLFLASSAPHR

Sequence of human CD3ε (human) (P07766 22-126): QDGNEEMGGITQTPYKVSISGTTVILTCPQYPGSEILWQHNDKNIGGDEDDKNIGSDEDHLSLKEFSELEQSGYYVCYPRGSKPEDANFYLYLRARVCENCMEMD

In general, Kd refers to a measure of binding affinity in units of concentration. As for anti-CD3 antibody huUCHT1.v9, in the experiment with human CD3ε (human), the Kd came out at 2 nM. Turning to “anti-gD/UCHT1.v9 TDB (bispecific antibody)”, the killing of cells expressing the truncated target, EC50 in experiment [1] is 0.19 nM.
